Experimental data published in US6521594 (LA JOLLA CANCER RESEARCH FOUNDATION, dated 2003).
Starred links: 1 amine or outer side, 2 acyl side, 3 side chain; linkers in the order of their positions; H or OH if unused. Positions of bridges follow the written chain, without caps; N, C: chain ends. Non-standard residues stand in square brackets, D forms with d. Primed or numbered codes have the meaning given here. No end group written: not given here. Tyr(OMe)″ = O-methyl-tyrosine (Y-OMe, TyrOMe, O-Me-Tyr), COc1ccc(C[C@H](N[*:1])C(=O)[*:2])cc1; t‑but‑am‑Pmp = tert-butyl-substituted beta,beta-pentamethylenecysteine; Pen = CC(C)(S)[C@H](N)C(=O)O

B1: R(t-but-am-Pmp)GHRGDLRCR-2 (peptide)
peptide: R[t‑but‑am‑Pmp]GHRGDLRCR
modifications: disulfide 2-10; not fully specified; printed as R(t-but-am-Pmp)GHRGDLRCR-2; also: second HPLC peak, configuration not assigned

Legend:
[1] = target: T1, Platelet glycoprotein IIb/IIIa (human, UniProt P08514 32-1039; P05106 27-788); test: cell-based or functional assay
[2] = target: T1, Platelet glycoprotein IIb/IIIa; test: competition, ELISA or liposome assay
[3] = target: T1, Platelet glycoprotein IIb/IIIa; test: cell-based or functional assay; remark: listed apart in the source
Fibronectin receptor = target: T2, Fibronectin receptor (human, UniProt P08648 42-1049; P05556 21-798); test: competitive ELISA, fibronectin coated
T2 construct: mature; Purified on a 110 kd fibronectin fragment column; also called Fn-R; FnR

Vitronectin receptor = target: T3, Vitronectin receptor (human, UniProt P06756 31-1048; P05106 27-788); test: competition, ELISA or liposome assay, vitronectin coated
T3 construct: mature; also called Vn-R; VnR

[4] = target: T1, Platelet glycoprotein IIb/IIIa; test: cell-based or functional assay; remark: listed apart in the source

T3 sequence (P06756 31-1048, chain 1 of 2): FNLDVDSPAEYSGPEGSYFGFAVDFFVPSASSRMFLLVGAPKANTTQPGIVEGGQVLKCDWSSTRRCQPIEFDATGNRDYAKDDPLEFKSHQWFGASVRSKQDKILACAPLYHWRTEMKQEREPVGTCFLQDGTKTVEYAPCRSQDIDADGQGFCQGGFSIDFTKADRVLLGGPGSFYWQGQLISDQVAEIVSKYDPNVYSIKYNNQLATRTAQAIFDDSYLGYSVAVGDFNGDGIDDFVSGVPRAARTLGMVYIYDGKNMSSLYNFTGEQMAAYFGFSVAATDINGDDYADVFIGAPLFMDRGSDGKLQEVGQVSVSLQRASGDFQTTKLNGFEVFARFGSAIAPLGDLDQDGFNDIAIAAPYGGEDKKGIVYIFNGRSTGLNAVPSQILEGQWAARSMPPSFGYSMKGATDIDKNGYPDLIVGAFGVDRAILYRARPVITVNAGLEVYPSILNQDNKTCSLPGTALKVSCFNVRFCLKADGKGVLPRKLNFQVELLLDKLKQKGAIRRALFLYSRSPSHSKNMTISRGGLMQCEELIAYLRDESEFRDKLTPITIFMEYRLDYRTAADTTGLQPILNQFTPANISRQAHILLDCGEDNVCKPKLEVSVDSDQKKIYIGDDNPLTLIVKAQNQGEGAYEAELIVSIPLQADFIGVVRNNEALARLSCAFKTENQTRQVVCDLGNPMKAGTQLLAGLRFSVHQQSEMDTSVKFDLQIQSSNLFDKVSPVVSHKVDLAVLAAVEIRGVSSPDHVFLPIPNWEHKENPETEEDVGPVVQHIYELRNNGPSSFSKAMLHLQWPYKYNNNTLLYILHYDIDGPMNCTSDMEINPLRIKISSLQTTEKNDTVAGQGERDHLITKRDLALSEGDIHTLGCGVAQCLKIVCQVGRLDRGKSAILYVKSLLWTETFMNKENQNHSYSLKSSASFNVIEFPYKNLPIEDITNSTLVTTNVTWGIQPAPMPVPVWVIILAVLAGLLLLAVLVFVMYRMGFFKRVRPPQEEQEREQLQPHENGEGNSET
T3 sequence (P05106 27-788, chain 2 of 2): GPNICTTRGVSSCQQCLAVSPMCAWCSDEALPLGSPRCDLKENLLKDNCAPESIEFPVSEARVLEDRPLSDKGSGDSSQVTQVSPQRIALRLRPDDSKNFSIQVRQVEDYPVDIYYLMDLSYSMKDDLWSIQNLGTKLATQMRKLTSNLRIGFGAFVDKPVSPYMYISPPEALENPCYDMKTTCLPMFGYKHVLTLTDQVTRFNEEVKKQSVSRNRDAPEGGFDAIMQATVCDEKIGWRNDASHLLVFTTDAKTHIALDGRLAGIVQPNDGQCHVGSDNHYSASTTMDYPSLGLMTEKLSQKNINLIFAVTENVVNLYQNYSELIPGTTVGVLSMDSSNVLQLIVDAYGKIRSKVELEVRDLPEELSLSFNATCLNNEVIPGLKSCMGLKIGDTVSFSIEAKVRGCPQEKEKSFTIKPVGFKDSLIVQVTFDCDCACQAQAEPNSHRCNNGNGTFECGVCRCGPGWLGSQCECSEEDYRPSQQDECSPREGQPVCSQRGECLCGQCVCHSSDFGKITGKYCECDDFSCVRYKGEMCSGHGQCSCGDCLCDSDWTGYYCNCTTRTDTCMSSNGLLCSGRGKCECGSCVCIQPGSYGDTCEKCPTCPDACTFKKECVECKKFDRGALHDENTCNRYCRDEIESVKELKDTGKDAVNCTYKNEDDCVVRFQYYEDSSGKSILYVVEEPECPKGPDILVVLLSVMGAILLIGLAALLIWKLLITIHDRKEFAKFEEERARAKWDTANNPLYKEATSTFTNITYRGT
T2 sequence (P08648 42-1049, chain 1 of 2): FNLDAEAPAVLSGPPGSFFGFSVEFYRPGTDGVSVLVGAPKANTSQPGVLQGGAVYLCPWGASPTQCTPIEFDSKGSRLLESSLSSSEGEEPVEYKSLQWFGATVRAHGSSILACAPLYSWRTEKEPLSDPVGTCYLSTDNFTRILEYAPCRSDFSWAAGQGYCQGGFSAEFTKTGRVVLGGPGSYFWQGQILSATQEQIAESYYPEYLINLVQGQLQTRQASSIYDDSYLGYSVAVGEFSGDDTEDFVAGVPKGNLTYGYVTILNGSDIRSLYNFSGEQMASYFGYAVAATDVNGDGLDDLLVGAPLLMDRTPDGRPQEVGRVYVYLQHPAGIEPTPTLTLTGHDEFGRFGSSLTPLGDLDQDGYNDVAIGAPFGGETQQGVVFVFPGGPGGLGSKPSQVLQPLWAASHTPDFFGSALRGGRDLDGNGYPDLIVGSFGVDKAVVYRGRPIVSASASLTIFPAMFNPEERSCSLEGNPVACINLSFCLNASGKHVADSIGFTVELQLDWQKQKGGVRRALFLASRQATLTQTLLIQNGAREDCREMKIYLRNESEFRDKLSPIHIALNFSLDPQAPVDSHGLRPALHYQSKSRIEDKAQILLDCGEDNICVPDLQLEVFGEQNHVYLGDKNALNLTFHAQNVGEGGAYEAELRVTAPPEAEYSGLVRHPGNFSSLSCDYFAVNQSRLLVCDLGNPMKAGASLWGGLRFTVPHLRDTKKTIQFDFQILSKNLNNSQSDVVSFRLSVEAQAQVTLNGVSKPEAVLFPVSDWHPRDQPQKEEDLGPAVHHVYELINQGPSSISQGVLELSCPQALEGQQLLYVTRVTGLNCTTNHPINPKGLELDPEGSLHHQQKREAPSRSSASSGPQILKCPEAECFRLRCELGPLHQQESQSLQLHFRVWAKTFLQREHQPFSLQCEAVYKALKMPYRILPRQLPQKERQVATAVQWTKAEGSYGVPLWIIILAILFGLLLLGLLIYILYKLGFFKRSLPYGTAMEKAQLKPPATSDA
T2 sequence (P05556 21-798, chain 2 of 2): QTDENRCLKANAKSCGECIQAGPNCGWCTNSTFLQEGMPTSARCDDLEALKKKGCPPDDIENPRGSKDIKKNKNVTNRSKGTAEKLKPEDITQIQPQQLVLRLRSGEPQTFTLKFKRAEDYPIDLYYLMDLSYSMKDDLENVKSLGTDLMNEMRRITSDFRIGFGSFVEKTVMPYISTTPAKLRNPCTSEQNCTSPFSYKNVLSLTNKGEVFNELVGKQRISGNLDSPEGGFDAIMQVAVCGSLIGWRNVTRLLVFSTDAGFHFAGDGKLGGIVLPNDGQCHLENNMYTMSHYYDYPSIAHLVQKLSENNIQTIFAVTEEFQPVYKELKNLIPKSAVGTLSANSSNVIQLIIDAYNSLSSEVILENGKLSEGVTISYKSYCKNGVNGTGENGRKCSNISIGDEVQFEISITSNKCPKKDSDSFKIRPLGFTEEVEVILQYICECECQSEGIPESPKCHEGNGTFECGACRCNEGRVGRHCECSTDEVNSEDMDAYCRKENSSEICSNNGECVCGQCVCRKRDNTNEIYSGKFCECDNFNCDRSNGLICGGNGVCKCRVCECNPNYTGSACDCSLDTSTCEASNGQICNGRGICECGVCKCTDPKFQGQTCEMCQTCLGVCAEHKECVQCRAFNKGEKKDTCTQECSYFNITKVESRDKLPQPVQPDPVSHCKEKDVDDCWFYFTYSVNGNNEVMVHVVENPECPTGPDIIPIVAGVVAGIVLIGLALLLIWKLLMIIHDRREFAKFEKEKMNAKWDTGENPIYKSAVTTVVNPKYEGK

| Binder | IC50 (µM) Human Platelet Aggregation [1] | IC50 [2] | IC50, ADP-Stimulated Aggregation [3] | IC50 (Fibronectin receptor) | IC50 (Vitronectin receptor) | Inhibition of Platelet Aggregation, IC50 [4] |
| --- | --- | --- | --- | --- | --- | --- |
| R[Pen]GHRGDWRCR (disulfide 2-10, also called 4Q) [R(Pen)GHRGDWRCR] | 3.3 µM | 800 nM | – | – | – | – |
| VRGDSPDG | – | 270 nM | 92000 nM | 40 nM | 240 nM | – |
| Ac-CDPRGD[Tyr(OMe)″]RC-NH2 (disulfide 1-9 (inferred)) [AcCDPRGD(TyrOMe)RC-NH2] | – | – | – | – | – | 3000 nM |
| B1 | – | 60 nM | – | – | 3700 nM | – |
